Experimental data: patent US20210261667A1 (SHANGHAI NOVAMAB BIOPHARMACEUTICALS, published 2021)

What was measured:
Experiment in all cases: ELISA on coated antigen, A405 nm
PD-L1 (mouse) = target: T1, PD-L1 (mouse) (mouse, UniProt Q9EP73 19-238, limits assumed)
T1 construct: also called mouse PD-L1; murine PD-L1

human PD-L2 = target: T2, human PD-L2 (human, UniProt Q9BQ51 20-220, limits assumed)
T2 sequence (looked up): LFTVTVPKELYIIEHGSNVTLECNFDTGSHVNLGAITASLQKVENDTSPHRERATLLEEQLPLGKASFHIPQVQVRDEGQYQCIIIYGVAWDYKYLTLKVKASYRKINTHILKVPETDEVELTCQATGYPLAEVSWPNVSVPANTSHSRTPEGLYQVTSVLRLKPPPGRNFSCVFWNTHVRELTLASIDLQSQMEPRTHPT

human B7H3 = target: T3, human B7H3 (human, UniProt Q5ZPR3-2 29-245, limits assumed)
T3 sequence (looked up): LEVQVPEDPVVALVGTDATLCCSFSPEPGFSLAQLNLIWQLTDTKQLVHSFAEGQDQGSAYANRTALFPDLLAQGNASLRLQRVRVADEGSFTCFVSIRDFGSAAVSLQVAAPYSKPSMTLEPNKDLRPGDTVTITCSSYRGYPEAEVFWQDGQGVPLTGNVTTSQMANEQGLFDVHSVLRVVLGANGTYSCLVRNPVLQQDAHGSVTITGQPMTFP

B7H4 = target: T4, B7H4 (human, UniProt Q7Z7D3 29-258, limits assumed)
T4 sequence (looked up): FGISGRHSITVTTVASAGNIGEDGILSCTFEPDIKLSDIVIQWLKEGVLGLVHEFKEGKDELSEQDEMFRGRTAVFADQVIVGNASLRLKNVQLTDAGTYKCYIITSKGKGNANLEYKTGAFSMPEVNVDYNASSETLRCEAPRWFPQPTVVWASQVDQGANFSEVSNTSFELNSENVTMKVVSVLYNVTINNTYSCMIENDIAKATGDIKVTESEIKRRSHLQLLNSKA

T1 sequence (Q9EP73 19-238 limits assumed): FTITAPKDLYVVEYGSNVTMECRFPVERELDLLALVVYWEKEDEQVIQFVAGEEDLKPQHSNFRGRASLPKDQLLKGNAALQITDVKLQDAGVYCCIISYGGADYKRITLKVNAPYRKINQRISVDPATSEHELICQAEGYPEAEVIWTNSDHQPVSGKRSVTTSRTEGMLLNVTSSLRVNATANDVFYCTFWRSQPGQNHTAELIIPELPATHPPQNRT

binding result (PD-L1 (mouse)): no binding | binding result (human PD-L2): no binding | binding result (human B7H3): no binding | binding result (B7H4): no binding
B1: bivalent anti-PD-L1 single-domain antibody before humanization (Fc fusion)
chain: QVQLQESGGGSVQAGGSLRLSCTASGYNLSPSCMGWFRQAPGKEREGVAFTDADGSTRYADSVKARFTISRDNAENTLYLQMNSLKPEDTAMYYCAADFFSYCSVVFRASARDKYRGQGTQVTVSS
notes: also called bivalent PD-L1 single-domain antibody before humanization; bivalent single-domain antibody before humanization; not shown: IgG1 Fc of vector pFUSE-IgG1
